Test results published in publication PMC4412574, “On-Off Kinetics of Engagement of FNI Modules of Soluble Fibronectin by β-Strand Addition” (PLoS ONE, 2015).
Peptide text beside a SMILES is read from it.

How the values were obtained:
[1] = molecular target: T1, plasma FN (Homo sapiens, UniProt P02751); test: Size exclusion chromatography of FN-AFpolypeptide complex; format: binding; settings: from half-life lower limit by Eq 4, read-out: k off estimated from size exclusion chromatography
Experimental: (§1) Fractions of 0.5 ml were collected and assayed. FN was monitored by absorbance at 280 nm by NanoDrop 2000 UV-Vis Spectrophotometer (Thermo Scientific, Wilmington, DE) and AFpolypeptide by Tecan Genios Pro microplate reader with excitation 485 nm and emission 535 nm. FN, AFFUD or AFBbk32 was analyzed by itself as a control. The k off of FN-AFFUD complex was estimated by estimating the lower limit of half-life (t1/2) of complex decay and the following equation: t1/2 = 0.693/koff (4)
(§2) To corroborate the estimates from stopped-flow fluorimetry of k off for the FN-FUD or FN-Bbk32 interaction by a second method, size exclusion chromatography of the FN-AFFUD or FN-AFBbk32 complex was carried out. […] Elution patterns of FN alone (Fig 6C), AFFUD alone (Fig 6D), and AFBbk32 alone (Fig 6E) are also shown. FN eluted at 20 min. We estimate, therefore, that the half-life of FN-AFFUD is longer than 20 min and, according to Eq, the k off of FN-AFFUD is < 10^-3 s^-1, which is more than 20-fold slower than that estimated for FN-AFBbk32 by Eq or the displacement experiment (Table 1).
Fig 6 FPLC size exclusion of FN-AFFUD or FN-AFBbk32 complex. […] Absorbance at 280nm (A^280nm), and emission at 535 nm upon excitation at 485 nm (E^535nm) were measured to estimate, respectively, concentration of FN and AFpolypeptide and expressed relative to the values in starting material. […]

[2] = molecular target: T1, plasma FN; test: Stopped-flow displacement of AFpolypeptide from FN complex by unlabeled polypeptide (or size exclusion chromatography); format: binding; settings: 1 μM unlabeled polypeptide, over 180 sec (Fig 3E-H)
Experimental: (§3) Measurements were in TBS with 100mM NaCl at 25°C. Reactants separated in two syringes were injected by SFA-20 rapid kinetics accessory (Hi-Tech Scientific, Salisbury, England) into the cuvette for mixing in QuantaMaster 300 spectrofluorimeter (Photon Technology International, Edison, New Jersey) with excitation and emission polarizers of 90 degree. The excitation and emission wavelength were 485nm and 535 nm respectively. Upon mixing the fluorescence intensity were recorded at a rate of 10 points/sec during the reaction procedure. In the absence of FN or FN70K, there was no change in fluorescence polarization for any of the AFpolypeptides.
In displacement assays, unlabeled FUD, HADD, FRD, Bbk32, or ΔBbk32 in 10-fold molar excess of FN or FN70K was mixed with complex of AFpolypeptide and FN or FN70K. For ΔBbk32, only displacement from FN was measured. The k off value is calculated by Ft = Fmin+Fmax-Fmin1-e^-kofft (3) in which k off is the dissociation rate constant. The k on of FN70K-AFpolypeptide was determined by Eq based on [FN70K] and the k off of FN70K-AFpolypeptide obtained from Eq.
Fractions of 0.5 ml were collected and assayed. FN was monitored by absorbance at 280 nm by NanoDrop 2000 UV-Vis Spectrophotometer (Thermo Scientific, Wilmington, DE) and AFpolypeptide by Tecan Genios Pro microplate reader with excitation 485 nm and emission 535 nm. […]

[3] = molecular target: T1, plasma FN; test: Stopped-flow fluorimetry (crossed polarizers), direct binding of AFpolypeptide to a series of FN concentrations; settings: as restated in text from Table 1; read-out: k on of FN-AFpolypeptide interaction
Experimental: as §3
In direct binding assays, AFFUD, AFHADD, AFFRD or AFBbk32, 10 nM, was mixed with a series of FN concentrations or with FN70K at 100 nM. AFΔBbk32 was studied only with FN at 100 nM. For each experiment, four or five curves were generated, and k obs was calculated by F(t) = Fmin+(Fmax-Fmin)e^-kobst (1) where F(t) is fluorescence intensity at time point t. Fmax or Fmin is maximum or minimum fluorescence intensity, and the rate constant k is k obs. […]
Stopped-flow fluorimetry with crossed-polarizers was performed to study on-off kinetics of the FN-AFpolypeptide interactions. Upon mixing 10 nM AFFUD, AFHADD, AFFRD or AFBbk32 with increasing concentration (100, 200, 300, 400, or 500 nM) of FN, decreases of fluorescence intensity were observed (Fig 3). […]

[4] = molecular target: T2, FN70K fragment (Homo sapiens, UniProt P02751); test: Size exclusion chromatography of FN70K-AFpolypeptide complex; format: binding; settings: data not shown, read-out: k off estimated from size exclusion chromatography
T2 construct: the FN70K domain comprising the N-terminal ^1-9FNI and ^1-2FNII modules of FN; from tissue; host or cells: proteolytic fragment of FN
T2 sequence (P02751 32-609 limits assumed): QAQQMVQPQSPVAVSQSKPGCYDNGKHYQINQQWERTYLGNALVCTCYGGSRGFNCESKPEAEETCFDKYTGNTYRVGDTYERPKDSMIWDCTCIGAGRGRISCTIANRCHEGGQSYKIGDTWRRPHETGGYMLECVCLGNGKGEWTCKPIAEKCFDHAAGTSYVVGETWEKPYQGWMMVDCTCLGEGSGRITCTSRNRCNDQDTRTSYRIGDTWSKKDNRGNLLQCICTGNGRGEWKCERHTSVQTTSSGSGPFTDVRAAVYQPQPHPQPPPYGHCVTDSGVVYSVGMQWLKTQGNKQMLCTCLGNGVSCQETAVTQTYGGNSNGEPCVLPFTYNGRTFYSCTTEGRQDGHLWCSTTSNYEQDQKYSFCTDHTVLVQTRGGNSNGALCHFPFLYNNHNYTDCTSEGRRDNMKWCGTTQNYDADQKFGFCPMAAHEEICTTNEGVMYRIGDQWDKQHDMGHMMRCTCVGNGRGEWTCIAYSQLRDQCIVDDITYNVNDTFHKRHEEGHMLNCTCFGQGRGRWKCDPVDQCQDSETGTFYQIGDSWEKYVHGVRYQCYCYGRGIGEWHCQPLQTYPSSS
Experimental: as §1, §2

[5] = molecular target: FN70K fragment (N-terminal 70-kDa region of fibronectin); test: fluorescence polarisation; stopped-flow with crossed polarizers, displacement: 10 nM AFpolypeptide pre-mixed 30 min with 100 nM FN or FN70K, then 1 uM of the same unlabeled polypeptide; single exponential fit; TBS with 100 mM NaCl, 25°C
[6] = molecular target: plasma fibronectin (FN) (UniProt P02751); test: as above
[7] = molecular target: FN70K fragment (N-terminal 70-kDa region of fibronectin); test: fluorescence polarisation; KD calculated as koff/kon from the stopped-flow on-rate and the off-rate of the stopped-flow displacement
[8] = molecular target: plasma fibronectin (FN) (UniProt P02751); test: as above
[9] = molecular target: FN70K fragment (N-terminal 70-kDa region of fibronectin); test: fluorescence polarisation; stopped-flow with crossed polarizers, direct binding at a single concentration: 10 nM AFpolypeptide mixed with 100 nM FN70K; kon from kobs and the koff of displacement (koff taken as 0 for FUD and HADD); TBS with 100 mM NaCl, 25°C
[10] = molecular target: plasma fibronectin (FN) (UniProt P02751); test: fluorescence polarisation; stopped-flow with crossed polarizers, direct binding: 10 nM AFpolypeptide mixed with 100, 200, 300, 400 or 500 nM FN; kobs against [FN], kon from the slope, koff from the y-intercept; TBS with 100 mM NaCl, 25°C
[11] = molecular target: plasma fibronectin (FN) (UniProt P02751); test: fluorescence polarisation; stopped-flow with crossed polarizers, displacement: 10 nM AFpolypeptide pre-mixed 30 min with 100 nM FN or FN70K, then 1 uM of the same unlabeled polypeptide; single exponential fit; TBS with 100 mM NaCl, 25°C; remark: listed apart in the source
[12] = molecular target: FN70K fragment (N-terminal 70-kDa region of fibronectin); test: fluorescence polarisation + SEC; KD limit calculated as koff/kon from the stopped-flow on-rate and the upper limit of koff by chromatography
[13] = molecular target: plasma fibronectin (FN) (UniProt P02751); test: as above
[14] = molecular target: FN70K fragment (N-terminal 70-kDa region of fibronectin); test: SEC; data not shown: the same size exclusion experiment as for FN-AFFUD, with FN70K-AFFUD, FN-AFHADD or FN70K-AFHADD
[15] = molecular target: plasma fibronectin (FN) (UniProt P02751); test: SEC; 400 nM FN and 40 nM AFFUD or AFBbk32 mixed 30 min in TBS with 100 mM NaCl, Superose 6 10/300 at 0.5 ml/min; FN by A280, AFpolypeptide by fluorescence; koff from the lower limit of the half-life
[16] = molecular target: plasma fibronectin (FN) (UniProt P02751); test: SEC; data not shown: the same size exclusion experiment as for FN-AFFUD, with FN70K-AFFUD, FN-AFHADD or FN70K-AFHADD
[17] = molecular target: plasma fibronectin (FN) (UniProt P02751); test: ELISA; competitive: FN coated on 96-well plate (50 ul, 20 nM); 0.5 nM b-FUD or b-Bbk32 mixed with unlabeled FUD or Bbk32 at 1, 10, 100 or 1000 nM, 1 h; bound biotinylated polypeptide detected with enzyme-conjugated (strept)avidin

T1 sequence (P02751 32-609): as the sequence (P02751 32-609 limits assumed) above

For C[C@H](N)C(=O)N[C@@H](Cc1ccccc1)C(=O)N[C@@H](Cc1c[nH]cn1)C(=O)N[C@@H](C)C(=O)N[C@@H](CC(=O)O)C(=O)N[C@@H](CC(=O)O)C(=O)O [AFHADD] (H-AFHADD-OH), the koff [1] was < 0.001 s⁻¹, the “reversal of fluorescence intensity decrease on displacement” value [2] was “less than 10%” and the kon [3] was 430000 M⁻¹ s⁻¹. The koff [4] was < 0.001 s⁻¹.

“AFBbk32 (Bbk32 labeled with Alexa 488 on the N-terminal cysteine) (domain or fragment)” was tested, and the koff [5] was 0.033 s⁻¹, the koff [6] was 0.025 s⁻¹ and the Kd [7] was 14 nM. It also gave a Kd [8] of 140 nM, a kon [9] of 2.4e+06 M⁻¹ s⁻¹ and a koff [10] of 0.036 to 0.041 s⁻¹. The kon [10] was 180000 M⁻¹ s⁻¹.

“AFFRD (FRD labeled with Alexa 488 on the N-terminal cysteine) (domain or fragment)” was tested, and the koff [5] was 0.013 s⁻¹, the koff [6] was 0.021 s⁻¹ and the Kd [7] was 3.1 nM. The Kd [8] was 70 nM, the kon [9] was 4.1e+06 M⁻¹ s⁻¹ and the koff [10] was 0.027 to 0.039 s⁻¹. The kon [10] was 290000 M⁻¹ s⁻¹ and the koff [11] was 0.02 s⁻¹.

“AFFUD (FUD labeled with Alexa 488 on the N-terminal cysteine) (domain or fragment)” was tested, and the percent of the fluorescence intensity decrease reversed over 180 sec by 1 uM unlabeled polypeptide [6] was < 10%, the Kd [12] was < 0.26 nM and the Kd [13] was < 2.6 nM. For the same compound, the koff [14] was < 0.001 s⁻¹, the half-life of the complex [15] was > 20 min and the koff [15] was < 0.001 s⁻¹. It also gave a percent of AFFUD eluting with FN [15] of 100%, a kon [9] of 3.9e+06 M⁻¹ s⁻¹ and a kon [10] of 390000 M⁻¹ s⁻¹.

For “AFHADD (HADD labeled with Alexa 488 on the N-terminal cysteine) (domain or fragment)”, the percent of the fluorescence intensity decrease reversed over 180 sec by 1 uM unlabeled polypeptide [6] was < 10%, the Kd [12] was < 0.1 nM and the Kd [13] was < 2.3 nM. The koff [14] was < 0.001 s⁻¹, the koff [16] was < 0.001 s⁻¹ and the kon [9] was 9.7e+06 M⁻¹ s⁻¹. The kon [10] was 430000 M⁻¹ s⁻¹.

With “Bbk32, unlabeled (version with the N-terminal cysteine) (domain or fragment)” the IC50 [17] was 30 nM and the percent of b-FUD binding to FN left at 1000 nM Bbk32 [17] was > 60%.

Work on “FUD, unlabeled (version with the N-terminal cysteine) (domain or fragment)” yielded an IC50 [17] of 10 nM.
